{"source": "patent US20110142842A1", "about": "(published 2011)", "binders": {"B1": {"name": "TCR of SEQ ID NOs 180 and 154 (CDR3 alpha and CDR3 beta) (TCR)", "alpha TRAV5 J-23 CDR3": "AEWGQGGKLI", "beta TRBV12-4 J2-7 CDR3": "ASSPGLTYEQY"}, "B2": {"name": "TCR of SEQ ID NOs 179 and 153 (CDR3 alpha and CDR3 beta) (TCR)", "alpha TRAV38-2/DV8 J-43 CDR3": "AYASFDMR", "beta TRBV13 J2-3 CDR3": "ASSLGSANTQY"}, "B3": {"name": "TCR of SEQ ID NOs 181 and 155 (CDR3 alpha and CDR3 beta) (TCR)", "alpha TRAV24 J-28 CDR3": "AFMPGAGSYQLT", "beta TRBV4-2 J2-7 CDR3": "ASSQGLTYEQY"}, "B4": {"name": "TCR of SEQ ID NOs 177 and 150 (CDR3 alpha and CDR3 beta) (TCR)", "alpha TRAV30 J-57 CDR3": "GTQGGSEKLV", "beta TRBV19 J2-7 CDR3": "ATAPGLSYEQY"}, "B5": {"name": "TCR of SEQ ID NOs 175 and 148 (CDR3 alpha and CDR3 beta) (TCR)", "alpha TRAV12-2 J-33 CDR3": "AGIMDSNY", "beta TRBV4-2 J2-7 CDR3": "ASSHGNGYEQY"}}}
{"target": "T1, CD20 peptide on HLA-A*02:01 (human)", "T1 peptide": "SLFLGILSV", "experiment": "multimer staining"}
{"binder": "B1", "binding result": "recognises"}
{"binder": "B2", "binding result": "recognises"}
{"binder": "B3", "binding result": "recognises"}
{"binder": "B4", "binding result": "recognises"}
{"binder": "B5", "binding result": "recognises"}
